# Laboratory results: patent US20230364254A1, “METHODS FOR TREATING CANCERS WITH ANTIBODY DRUG CONJUGATES (ADC) THAT BIND TO 191P4D12 PROTEINS” (priority 2020, published 2023)
# Test system: patients with locally advanced or metastatic urothelial cancer
# Assay: Same phase 2 study: safety (adverse events, NCI CTCAE v4.03)
# Assay type: in vivo, human
# Text: Safety assessments will be based on the information collected through the safety surveillance process and will include the data from recorded adverse events (AEs) including SAEs, recording of concomitant medication, physical examination findings, cardiac monitoring, and laboratory tests.
# The assessment of safety during the course of this study will consist of the surveillance and recording of AEs including SAEs, recording of concomitant medication, and measurements of protocol-specified physical examination findings, cardiac monitoring, and laboratory tests.
# AE severity should be graded using the National Cancer Institute's Common Terminology Criteria for Adverse Events (NCI CTCAE), Version 4.03. These criteria are provided in the study manual.
# An overview of AEs will provide a tabulation of the incidence of all AEs, treatment-emergent AEs, treatment-related AEs, Grade 3 and higher AEs. SAEs, treatment-related SAEs, deaths, and AEs leading to study treatment discontinuation. Adverse events will be defined as treatment emergent if they are newly occurring or worsened following study treatment.
# AEs will be classified by system organ class and preferred tem using the Medical Dictionary for Regulatory Activities (MedDRA) and graded using NCI CTCAE, Version 4.03.
# The incidence of AEs will be summarized by system organ class, preferred term, severity and relationship to study drug. In the event of multiple occurrences of the same AE in one patient, the AE will be counted once as the occurrence for the maximum grade. AEs leading to premature discontinuation of study drug will be summarized and listed in the same manner.
# [1] = Total (N = 214), count (percent)
# [2] = treatment-related TEAEs of interest
# [3] = treatment-related TEAEs of interest, as of last follow-up
# [4] = treatment-related TEAEs of interest, enfortumab vedotin 1.25 mg/kg, patients with locally advanced or metastatic urothelial cancer
# [5] = treatment-related TEAEs of interest, most occurred in Cycle 1
substance,measurement,setting,value
enfortumab vedotin: Nectin-4 directed ADC: fully human anti-nectin-4 IgG1 kappa antibody (AGS-22C3) conjugated to MMAE via protease-cleavable maleimidocaproyl valine-citrulline linker,Treatment-related AE leading to discontinuation: Multiple organ dysfunction syndrome,Total (N = 214),1 (0.5) n (%)
same,Treatment-related AE leading to discontinuation: Muscular weakness,Total (N = 214),1 (0.5) n (%)
same,Treatment-related AE leading to discontinuation: Overall,Total (N = 214),29 (13.6) n (%)
same,Treatment-related AE leading to discontinuation: Peripheral motor neuropathy,Total (N = 214),1 (0.5) n (%)
same,Treatment-related AE leading to discontinuation: Peripheral sensory neuropathy,Total (N = 214),12 (5.6) n (%)
same,Treatment-related AE leading to discontinuation: Pneumonitis,Total (N = 214),1 (0.5) n (%)
same,Treatment-related AE leading to discontinuation: Stevens-Johnson syndrome,Total (N = 214),1 (0.5) n (%)
same,Treatment-related TEAEs,Total (N = 214),203 (94.9) n (%)
same,Treatment-related TEAEs (all grades): Alopecia,Total (N = 214),107 (50.0) n (%)
same,Treatment-related TEAEs (all grades): Anaemia,Total (N = 214),49 (22.9) n (%)
same,Treatment-related TEAEs (all grades): Aspartate aminotransferase increased,Total (N = 214),24 (11.2) n (%)
same,Treatment-related TEAEs (all grades): Decreased appetite,Total (N = 214),84 (39.3) n (%)
same,Treatment-related TEAEs (all grades): Diarrhoea,Total (N = 214),61 (28.5) n (%)
same,Treatment-related TEAEs (all grades): Dry eye,Total (N = 214),36 (16.8) n (%)
same,Treatment-related TEAEs (all grades): Dry skin,Total (N = 214),46 (21.5) n (%)
same,Treatment-related TEAEs (all grades): Dysgeusia,Total (N = 214),71 (33.2) n (%)
same,Treatment-related TEAEs (all grades): Fatigue,Total (N = 214),92 (43.0) n (%)
same,Treatment-related TEAEs (all grades): Lacrimation increased,Total (N = 214),30 (14.0) n (%)
same,Treatment-related TEAEs (all grades): Nausea,Total (N = 214),70 (32.7) n (%)
same,Treatment-related TEAEs (all grades): Neutropenia,Total (N = 214),24 (11.2) n (%)
same,Treatment-related TEAEs (all grades): Oedema peripheral,Total (N = 214),25 (11.7) n (%)
same,Treatment-related TEAEs (all grades): Overall,Total (N = 214),203 (94.9) n (%)
same,Treatment-related TEAEs (all grades): Peripheral sensory neuropathy,Total (N = 214),92 (43.0) n (%)
same,Treatment-related TEAEs (all grades): Pruritus,Total (N = 214),59 (27.6) n (%)
same,Treatment-related TEAEs (all grades): Rash maculo-papular,Total (N = 214),55 (25.7) n (%)
same,Treatment-related TEAEs (all grades): Vomiting,Total (N = 214),26 (12.1) n (%)
same,Treatment-related TEAEs (all grades): Weight decreased,Total (N = 214),52 (24.3) n (%)
same,Treatment-related TEAEs leading to death,Total (N = 214),3 (1.4) n (%)
same,Treatment-related TEAEs leading to treatment discontinuation,Total (N = 214),29 (13.6) n (%)
same,Treatment-related TEAEs ≥Grade 3: Acute kidney injury,Total (N = 214),5 (2.3) n (%)
same,Treatment-related TEAEs ≥Grade 3: Amylase increased,Total (N = 214),6 (2.8) n (%)
same,Treatment-related TEAEs ≥Grade 3: Anaemia,Total (N = 214),14 (6.5) n (%)
same,Treatment-related TEAEs ≥Grade 3: Aspartate aminotransferase increased,Total (N = 214),6 (2.8) n (%)
same,Treatment-related TEAEs ≥Grade 3: Decreased appetite,Total (N = 214),6 (2.8) n (%)
same,Treatment-related TEAEs ≥Grade 3: Diarrhoea,Total (N = 214),8 (3.7) n (%)
same,Treatment-related TEAEs ≥Grade 3: Fatigue,Total (N = 214),14 (6.5) n (%)
same,Treatment-related TEAEs ≥Grade 3: Febrile neutropenia,Total (N = 214),6 (2.8) n (%)
same,Treatment-related TEAEs ≥Grade 3: Hyperglycaemia,Total (N = 214),10 (4.7) n (%)
same,Treatment-related TEAEs ≥Grade 3: Hyponatraemia,Total (N = 214),6 (2.8) n (%)
same,Treatment-related TEAEs ≥Grade 3: Lipase increased,Total (N = 214),10 (4.7) n (%)
same,Treatment-related TEAEs ≥Grade 3: Neutropenia,Total (N = 214),18 (8.4) n (%)
same,Treatment-related TEAEs ≥Grade 3: Neutrophil count decreased,Total (N = 214),16 (2.8) n (%)
same,Treatment-related TEAEs ≥Grade 3: Overall,Total (N = 214),119 (55.6) n (%)
same,Treatment-related TEAEs ≥Grade 3: Peripheral sensory neuropathy,Total (N = 214),5 (2.3) n (%)
same,Treatment-related TEAEs ≥Grade 3: Pruritus,Total (N = 214),5 (2.3) n (%)
same,Treatment-related TEAEs ≥Grade 3: Rash erythematous,Total (N = 214),6 (2.8) n (%)
same,Treatment-related TEAEs ≥Grade 3: Rash maculo-papular,Total (N = 214),12 (5.6) n (%)
same,Treatment-related grade 3-5 TEAEs,Total (N = 214),119 (55.6) n (%)
same,Treatment-related serious TEAEs,Total (N = 214),39 (18.2) n (%)
same,TEAEs leading to death (excluding disease progression): Acute kidney injury,[1],2 (0.9)
same,TEAEs leading to death (excluding disease progression): Acute respiratory failure,[1],1 (0.5)
same,TEAEs leading to death (excluding disease progression): Cardiac disorder,[1],1 (0.5)
same,TEAEs leading to death (excluding disease progression): Metabolic acidosis,[1],1 (0.5)
same,TEAEs leading to death (excluding disease progression): Multiple organ dysfunction syndrome,[1],1 (0.5)
same,TEAEs leading to death (excluding disease progression): Overall,[1],9 (4.2)
same,TEAEs leading to death (excluding disease progression): Pneumonia aspiration,[1],1 (0.5)
same,TEAEs leading to death (excluding disease progression): Sepsis,[1],2 (0.9)
same,Discontinuation due to treatment-related peripheral neuropathy,cohort 1,6%
same,Discontinuation rate due to treatment-related AEs,cohort 1,12%
same,Grade 3 or Grade 4 treatment-related TEAE: anemia,cohort 1,7%
same,Grade 3 or Grade 4 treatment-related TEAE: fatigue,cohort 1,6%
same,Grade 3 or Grade 4 treatment-related TEAE: neutropenia,cohort 1,8%
same,SAE (unrelated and related): cellulitis,cohort 1,4.8%
same,SAE (unrelated and related): urinary tract infection,cohort 1,4.8%
same,cases of Stevens-Johnson Syndrome reported,cohort 1,One
same,related SAE: febrile neutropenia,cohort 1,4%
same,subjects with a Grade 3 or Grade 4 treatment-related TEAE,cohort 1,54%
same,deaths assessed as treatment-related,"cohort 1, interstitial lung disease",one and One
same,Discontinuation due to treatment-related peripheral neuropathy,cohort 2,4.5%
same,Discontinuation rate due to treatment-related AEs,cohort 2,15.7%
same,SAE (unrelated and related): acute kidney injury,cohort 2,10.1%
same,deaths assessed as treatment-related by investigators,cohort 2,Four
same,related SAE: acute kidney injury,cohort 2,3.4%
same,subjects with a treatment-related TEAE greater than or equal to Grade 3,cohort 2,55.1%
same,treatment-related TEAE ≥Grade 3: fatigue,cohort 2,6.7%
same,treatment-related TEAE ≥Grade 3: neutropenia,cohort 2,9%
same,treatment-related TEAE ≥Grade 3: rash maculo-popular,cohort 2,7.9%
same,"Hyperglycemia, >Grade 3",[2],6%
same,"Peripheral Neuropathy, >Grade 3",[2],8%
same,"Peripheral Neuropathy, Median Onset",[2],2.6 months
same,"Skin Reactions, >Grade 3",[2],17%
same,"Hyperglycemia, Resolution/improvement",[3],89%
same,"Peripheral Neuropathy, Resolution/improvement",[3],54%
same,"Skin Reactions, Resolution/improvement",[3],80%
same,"Hyperglycemia, Any grade",[4],10%
same,"Peripheral Neuropathy, Any grade",[4],56%
same,"Skin Reactions, Any grade",[4],61%
same,"Hyperglycemia, Median Onset",[5],0.5ª months
same,"Skin Reactions, Median Onset",[5],0.5ª months
